These results are taken from publication PMC4121237, “Engineering Neprilysin Activity and Specificity to Create a Novel Therapeutic for Alzheimer’s Disease” (PLoS ONE, 2014).

One series relates to Aβ1–40. The series is described as follows: Endpoint degradation assay with ELISA read-out. It counts as biochemical, human. Conditions: 1 hour at room temperature; Aβ40 ELISA. As to the method: Supplementary file pone.0104001.s001.tif: Figure S1 Degradation of Aβ1–40 and Aβ1–42 by NEP wild-type and NEPv. Measurement of the degredation of Aβ1–40 (A) and Aβ1–42 (B) was performed by incubating peptide and either wild-type NEP (▪) or NEPv (Δ) for 1 hour at room temperature. The reaction was stopped by the addition of 1.10-phenanthroline to a final concentration of 10 µM. 50 µl (Aβ40 analysis) or 100 µl (Aβ42 analysis) of the reaction mix was transferred to an ELISA plate. Aβ40 and Aβ42 concentrations after degradation were determined using Invitrogen human Aβ40 ELISA kit (Invitrogen, California, US), and Innotest β-amyloid RUO (1–42) ELISA (Innogenetics, Gent, Belgium). […] (TIF) Click here for additional data file.
(An ELISA detects its analyte on a solid surface through an enzyme-linked reagent.)

For the next series, the system named is Substance P. The series is described as follows: Steady-state kinetics of peptide cleavage, fluorescence polarisation. It counts as biochemical. Conditions: substrate Substance P. In outline:
(§1)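 Reactions contain 1–500 nM NEP and 1–200 µM doubly labelled peptide (FAM, biotin) in pH 7.4 HEPES buffer at 37°C. Stop solution holds 2 mM 1,10-phenanthroline and 2 µM avidin, with 1 mM TCEP added for disulphide-containing peptides. Fluorescence polarisation then gives substrate cleaved, and initial rates versus substrate concentration yield kcat and KM.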
A general note: Polarisation of emitted light reports the rotation of a fluorescent probe.

Another series relates to Bradykinin. Described as above. The format is biochemical. In a few lines:
as §1

The test system of a further series is Neurokinin A. The description is as above. The format is biochemical. Conditions: substrate Neurokinin A. In a few lines: as §1
The subject of the next series is Neurotensin. Described as above. It counts as biochemical. In a few lines: as §1
Another series deals with Arg-vasopressin. Described as above. The format is biochemical. Conditions: substrate Arg-vasopressin. In outline: as §1
In a further series the test system is Endothelin-1. Description: Steady-state kinetics of endothelin-1 cleavage, stopped assay with RP-HPLC. It counts as biochemical. As to the method: Kinetic parameters for cleavage of endothelin-1 by NEP were determined using a stopped assay in which the amount of substrate cleaved was measured using reversed-phase HPLC (RP-HPLC). Endothelin-1 was incubated at 12.5–200 µM in the presence of wild type NEP or NEPv and reactions were stopped after 10 min at 37°C by the addition of an equal volume of 1∶1∶1 water:acetonitrile:TFA containing 2 mM tris(2-carboxyethyl)phosphine (Thermo Scientific). RP-HPLC spectra were recorded using an Agilent 1260 Infinity system. Injections of 20 µL were made for each sample and analytes were separated by elution on an Agilent Polaris C8-A stationary phase column (4.6×100 mm, 3 µm) at 1.5 mL min^−1 using a linear binary gradient of 10–90% acetonitrile in water with 0.1% (v/v) TFA over 15 minutes at 40°C. Signal intensity for intact endothelin-1 was monitored at 210 nm and relative peak area was determined by manual integration of the baseline. Kinetic parameters were derived from the activity data as described above.

Where [1] appears, read: ratio of wild-type NEP kcat/KM to that of the mutant.
Setting [2] is: substrate Bradykinin, 37°C, pH 7.4.
Where [3] appears, read: substrate Neurotensin, 37°C, pH 7.4.
[4] abbreviates: substrate Endothelin-1 (unlabelled), RP-HPLC, 10 min at 37°C.

B1: NEPv: lead variant at round 2, human NEP ectodomain with the two mutations G399V and G714K (protein, UniProt P08473 52-750, looked up, variant G399V G714K)
extracellular domain: YDDGICKSSDCIKSAARLIQNMDATTEPCTDFFKYACGGWLKRNVIPETSSRYGNFDILRDELEVVLKDVLQEPKTEDIVAVQKAKALYRSCINESAIDSRGGEPLLKLLPDIYGWPVATENWEQKYGASWTAEKAIAQLNSKYGKKVLINLFVGTDDKNSVNHVIHIDQPRLGLPSRDYYECTGIYKEACTAYVDFMISVARLIRQEERLPIDENQLALEMNKVMELEKEIANATAKPEDRNDPMLLYNKMTLAQIQNNFSLEINGKPFSWLNFTNEIMSTVNISITNEEDVVVYAPEYLTKLKPILTKYSARDLQNLMSWRFIMDLVSSLSRTYKESRNAFRKALYVTTSETATWRRCANYVNGNMENAVGRLYVEAAFAGESKHVVEDLIAQIREVFIQTLDDLTWMDAETKKRAEEKALAIKERIGYPDDIVSNDNKLNNEYLELNYKEDEYFENIIQNLKFSQSKQLKKLREKVDKDEWISGAAVVNAFYSSGRNQIVFPAGILQPPFFSAQQSNSLNYGGIGMVIGHEITHGFDDNGRNFNKDGDLVDWWTQQSASNFKEQSQCMVYQYGNFSWDLAGGQHLNGINTLGENIADNGGLGQAYRAYQNYIKKNGEEKLLPGLDLNHKQLFFLNFAQVWCGTYRPEYAVNSIKTDVHSPKNFRIIGTLQNSAEFSEAFHCRKNSYMNPEKKCRVW
modifications: extracellular domain
In general, EC50 refers to the midpoint of the concentration-response curve. One may read the Km as the concentration of substrate that gives half-maximal velocity. As a reminder, the kcat is the maximal rate divided by the concentration of active sites. Turning to B1, the EC50 with Aβ1–40 turned out to be 21.3 nM. The Km in the series with Substance P (37°C, pH 7.4) turned out to be 92 ± 10 µM; in the series on Bradykinin (setting [2]), 37 ± 10 µM; in the series on Neurokinin A (37°C, pH 7.4) it was 34 ± 7 µM; with Neurotensin (setting [3]), 16 ± 3 µM; with Arg-vasopressin (37°C, pH 7.4), 22 ± 3 µM; in the series on Endothelin-1 (setting [4]) it was 57 ± 20 µM. For the same molecule, the kcat is 12 ± 0.9 s⁻¹ in the series on Substance P (37°C, pH 7.4); 0.0055 ± 0.001 s⁻¹ in the series on Bradykinin (setting [2]); 1.1 ± 0.1 s⁻¹ in the series on Neurokinin A (37°C, pH 7.4); 0.039 ± 0.002 s⁻¹ in the series on Neurotensin (setting [3]); 0.017 ± 0.001 s⁻¹ in the series on Arg-vasopressin (37°C, pH 7.4); 0.059 ± 0.008 s⁻¹ in the series with Endothelin-1 (setting [4]). Besides, the “Fold change in kcat/KM” value in the series with Substance P (setting [1]) is 8.7; in the series on Neurokinin A (setting [1]), 52; with Neurotensin (substrate Neurotensin, ratio of wild-type NEP kcat/KM to that of the mutant), 320; in the series on Arg-vasopressin (setting [1]), 510; in the series with Endothelin-1 (substrate Endothelin-1, ratio of wild-type NEP kcat/KM to that of the mutant) it was 13. Besides, in the series with Bradykinin (Aβ1–40 versus bradykinin), the “specificity switch in favor of cleavage of Aβ” value is reported as 6.4×10^4. The “reduction in kcat relative to wild-type NEP” value in the series with Neurotensin (substrate neurotensin) worked out at 340 fold.
